Experimental data reported in patent US20260242823.
Like-named read-outs stand apart in the source and are kept apart here.

What was measured:
[1] = tested on: FVIII-R336Q/R562Q
[2] = tested on: wild-type FVIII
[3] = molecular target: FVIII-R336Q/R562Q; remark: listed apart in the source
[4] = molecular target: wild-type FVIII; remark: listed apart in the source

wild-type FVIII, sequence (chain, as listed by the source): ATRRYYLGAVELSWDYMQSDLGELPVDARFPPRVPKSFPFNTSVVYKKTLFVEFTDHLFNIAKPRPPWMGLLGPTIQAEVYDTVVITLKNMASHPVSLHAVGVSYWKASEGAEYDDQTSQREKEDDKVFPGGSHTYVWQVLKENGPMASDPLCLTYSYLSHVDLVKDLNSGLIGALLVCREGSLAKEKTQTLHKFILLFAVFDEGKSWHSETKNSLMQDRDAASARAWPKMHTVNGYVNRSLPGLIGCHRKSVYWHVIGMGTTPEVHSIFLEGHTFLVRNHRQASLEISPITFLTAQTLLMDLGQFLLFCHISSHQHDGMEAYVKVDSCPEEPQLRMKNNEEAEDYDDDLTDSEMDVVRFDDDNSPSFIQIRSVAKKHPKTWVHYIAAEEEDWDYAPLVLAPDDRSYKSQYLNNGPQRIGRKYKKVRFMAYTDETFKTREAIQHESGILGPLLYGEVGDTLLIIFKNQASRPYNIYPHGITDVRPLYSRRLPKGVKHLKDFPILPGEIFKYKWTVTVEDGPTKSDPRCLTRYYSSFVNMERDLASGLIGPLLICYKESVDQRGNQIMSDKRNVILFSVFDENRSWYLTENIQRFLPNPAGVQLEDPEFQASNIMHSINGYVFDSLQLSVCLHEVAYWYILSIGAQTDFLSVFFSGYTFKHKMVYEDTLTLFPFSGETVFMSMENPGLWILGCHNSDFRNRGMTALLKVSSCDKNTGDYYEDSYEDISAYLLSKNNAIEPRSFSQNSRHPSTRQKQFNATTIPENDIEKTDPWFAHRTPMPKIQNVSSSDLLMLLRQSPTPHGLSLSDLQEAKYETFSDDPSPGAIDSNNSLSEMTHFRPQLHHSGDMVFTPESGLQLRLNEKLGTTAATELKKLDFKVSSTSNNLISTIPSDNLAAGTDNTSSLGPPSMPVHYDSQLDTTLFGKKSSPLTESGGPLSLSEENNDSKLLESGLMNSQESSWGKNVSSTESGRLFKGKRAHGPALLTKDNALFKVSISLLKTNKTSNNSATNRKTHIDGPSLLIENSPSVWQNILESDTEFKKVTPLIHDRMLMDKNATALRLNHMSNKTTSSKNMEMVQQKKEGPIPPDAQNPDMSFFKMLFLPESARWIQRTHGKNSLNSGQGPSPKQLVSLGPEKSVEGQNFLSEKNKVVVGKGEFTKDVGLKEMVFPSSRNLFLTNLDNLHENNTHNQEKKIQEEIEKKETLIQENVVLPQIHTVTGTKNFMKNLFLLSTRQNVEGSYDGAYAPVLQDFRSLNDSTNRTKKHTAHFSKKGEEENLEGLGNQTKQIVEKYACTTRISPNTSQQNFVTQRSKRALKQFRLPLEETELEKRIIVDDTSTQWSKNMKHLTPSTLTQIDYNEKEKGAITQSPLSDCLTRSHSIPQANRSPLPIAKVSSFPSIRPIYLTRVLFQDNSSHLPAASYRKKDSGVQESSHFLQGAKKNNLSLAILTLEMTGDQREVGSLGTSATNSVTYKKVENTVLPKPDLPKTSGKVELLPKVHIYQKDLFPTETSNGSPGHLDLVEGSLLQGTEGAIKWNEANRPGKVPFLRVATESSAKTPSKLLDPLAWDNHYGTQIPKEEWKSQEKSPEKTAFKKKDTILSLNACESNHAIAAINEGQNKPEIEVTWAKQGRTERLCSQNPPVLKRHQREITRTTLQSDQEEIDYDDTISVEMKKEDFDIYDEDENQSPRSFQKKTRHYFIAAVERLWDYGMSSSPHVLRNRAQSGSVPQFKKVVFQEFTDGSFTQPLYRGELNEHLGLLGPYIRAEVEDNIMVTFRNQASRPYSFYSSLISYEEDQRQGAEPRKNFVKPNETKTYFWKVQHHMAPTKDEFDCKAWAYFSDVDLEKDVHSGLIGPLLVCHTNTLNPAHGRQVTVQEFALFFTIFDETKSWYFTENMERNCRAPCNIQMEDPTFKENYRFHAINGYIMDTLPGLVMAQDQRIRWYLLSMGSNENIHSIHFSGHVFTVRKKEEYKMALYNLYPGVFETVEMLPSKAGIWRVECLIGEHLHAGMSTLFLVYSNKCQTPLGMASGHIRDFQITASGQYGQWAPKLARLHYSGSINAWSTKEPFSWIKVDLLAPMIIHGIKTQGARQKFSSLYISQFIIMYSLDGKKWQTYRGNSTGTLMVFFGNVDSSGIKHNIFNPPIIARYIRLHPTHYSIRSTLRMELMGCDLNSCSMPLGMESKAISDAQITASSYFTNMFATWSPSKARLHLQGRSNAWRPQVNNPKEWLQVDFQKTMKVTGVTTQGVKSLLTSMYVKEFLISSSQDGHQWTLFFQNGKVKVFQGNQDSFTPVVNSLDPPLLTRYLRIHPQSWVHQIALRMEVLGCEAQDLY
FVIII-R336Q/R562Q, sequence (chain, as listed by the source R336Q R562Q): as the sequence (chain, as listed by the source) above, with R336Q, R562Q counted along it

FIXa
Western Blot analysis of cleavage fragments [1]: no such cleavage fragments were seen with FVIII-QQ
Western Blot analysis of cleavage fragments [2]: all serine proteases cleaved at R336 or R562 in FVIII-WT

activated protein C
Western Blot analysis of cleavage fragments [1]: no such cleavage fragments were seen with FVIII-QQ
Western Blot analysis of cleavage fragments [2]: all serine proteases cleaved at R336 or R562 in FVIII-WT

FXa
Western Blot analysis of cleavage fragments [1]: no such cleavage fragments were seen with FVIII-QQ
Western Blot analysis of cleavage fragments [2]: all serine proteases cleaved at R336 or R562 in FVIII-WT

thrombin (IIa)
Western Blot analysis of cleavage fragments [1]: no such cleavage fragments were seen with FVIII-QQ
Western Blot analysis of cleavage fragments [2]: all serine proteases cleaved at R336 or R562 in FVIII-WT
Western blot cleavage at R372 [2]: thrombin (IIa) as well as multiple serine proteases can also cleave R372 of FVIII

B1: plasmin (protein)
chain: KVYLSECKTGNGKNYRGTMSKTKNGITCQKWSSTSPHRPRFSPATHPSEGLEENYCRNPDNDPQGPWCYTTDPEKRYDYCDILECEEECMHCSGENYDGKISKTMSGLECQAWDSQSPHAHGYIPSKFPNKNLKKNYCRNPDRELRPWCFTTDPNKRWELCDIPRCTTPPPSSGPTYQCLKGTGENYRGNVAVTVSGHTCQHWSAQTPHTHNRTPENFPCKNLDENYCRNPDGKRAPWCHTTNSQVRWEYCKIPSCDSSPVSTEQLAPTAPPELTPVVQDCYHGDGQSYRGTSSTTTTGKKCQSWSSMTPHRHQKTPENYPNAGLTMNYCRNPDADKGPWCFTTDPSVRWEYCNLKKCSGTEASVVAPPPVVLLPDVETPSEEDCMFGNGKGYRGKRATTVTGTPCQDWAAQEPHRHSIFTPETNPRAGLEKNYCRNPDGDVGGPWCYTTNPRKLYDYCDVPQCAAPSFDCGKPQVEPKKCPGRVVGGCVAHPHSWPWQVSLRTRFGMHFCGGTLISPEWVLTAAHCLEKSPRPSSYKVILGAHQEVNLEPHVQEIEVSRLFLEPTRKDIALLKLSSPAVITDKVIPACLPSPNYVVADRTECFITGWGETQGTFGAGLLKEAQLPVIENKVCNRYEFLNGRVQSTELCAGHLAGGTDSCQGDSGGPLVCFEKDKYILQGVTSWGLGCARPNKPGVYVRVSRFVTWIEGVMRNN
Western Blot analysis of cleavage fragments [3]: no such cleavage fragments were seen with FVIII-QQ
Western Blot analysis of cleavage fragments [4]: all serine proteases cleaved at R336 or R562 in FVIII-WT
